B1: wt: coiled-coil region of cartilage oligomeric matrix protein with the two cysteines replaced by serines, SEQ ID NO:4 (protein)
chain: MRGSHHHHHHGSGDLAPQMLRELQETNAALQDVRELLRQQVKEITFLKNTVMESDASGKLN
modifications: human

Experiments:
[1] = Transmission electron microscopy of protein fibers; type: physicochemical; conditions: for fiber formation seen by TEM: pH 4, 50 mM PB
Procedure: Transmission electron microscopy: A JEOL JEM-1400 transmission electron microscope (TEM) was used to study the supramolecular protein structure. […] After 1 minute, the grids were blotted using filter paper and rinsed with 3-4 drops Milli Q water to remove excess salts from the buffer. After blotting with filter paper, the sample was negatively stained by adding 3 μL of 1% filtered uranyl acetate, blotted using filter paper, and dried at room temperature for 10-15 minutes. ImageJ software was used to measure the fibers dimensions.

[2] = ATR-FTIR secondary structure of solid-state protein; type: physicochemical; conditions: 10 μM protein in 50 mM PB
Procedure: Attenuated Total Reflectance Fourier Transform Infrared Spectroscopy (ATR-FTIR): ATR-FTIR experiments were performed using Perkin Elmer System 2000 FT-IR with DuraSamplIR II T diamond ATR accessory and equipped with a MCT-A detector. Approximately, 5 μL of peptide solution (10 μM in 50 mM PB, pH 4, 8, and 10) was added on the diamond ATR surface. The spectrum (128 scans) was measured at room temperature over a range of 4000-400 cm^−1 with 0.5 cm^−1 resolution. PeakFit software was used to process the data, which involved a 2nd derivative zero baseline correction of the amide I region between 1700-1600 cm^−1 and deconvolution of peaks with a Gaussian function. All readings represent the average of two trials.
To quantifying the secondary structure of the protein in its solid-state, ATR-FTIR experiments were conducted to evaluate secondary structure of insoluble Q fibers at pH 4, 8, and 10 (Table 8). The frequency measured in the regions of the amide I and amide II absorptions of a protein correlate to the secondary structural motifs within the protein, and were thereby used to assess conformation of the protein in its solid-state (FIGS. 20a-20d). Secondary structure conformation based on ATR-FTIR data for Q in 50 mM PB at pH 4, 8, and 10, and in the presence of curcumin at a 5:1 molar ratio with Q at pH 4 are shown in […]. Percent composition was determined from relative areas of peaks fit to spectra (FIGS. 20a-20d).
Secondary structure conformation based on ATR-FTIR data for 10 μM protein in 50 mM PB before and after templation of AuNPs is provided in Table 10. Percent composition was determined from relative areas of peaks fit to spectra (see spectra FIGS. 37a-37d, FIGS. 38a-38d).

[3] = Confocal microscopy of protein fibers in the presence of curcumin; type: physicochemical; conditions: protein:curcumin 1:5, 50 mM phosphate buffer pH 4
Procedure: FIGS. 7a-7c show confocal microscopy of CC, Q54, and COMPcc^S wt, in the presence of curcumin. The mixture of protein to curcumin were all at a ratio of 1:5. […] All different proteins are in 50 mM phosphate buffer, pH 4. Protein and curcumin samples were combined and incubated for 12 hours prior to imaging. […] The width of COMPcc^S wt shown in FIG. 7c was determined to be 12.72 μm. […] Overall, Q54 fibers appeared to be more uniform in width, as well as more robust and consistent in fiber formation.
Confocal microscopy: Samples were imaged using a Leica TCS SP2 AOBS confocal microscope system equipped with argon ion and HeNe lasers. A 63×/1.4 NA oil-immersion objective was used for all of the images. Lab-Tek II chambered #1.5 German coverglass system was used as the imaging slide. Curcumin was excited using the 458 nm line of the argon laser, and images were taken with the detection window set between 465 and 560 nm. The pinhole aperture was set at an Airy value of 1.0, which was equivalent to sampling an ˜500 nm vertical z slice of the fiber, as estimated by the axial resolution, rz,confocal≈1.4λcm n/NA^2 (NA, numerical aperture; n, refractive index; λcm, emission wavelength (525 nm)). Interference contrast images were obtained using the Leica tube optics HC 1×/B apparatus with a focusing Bertrand lens. The 3D reconstructions were constructed using ImageJ 64 1.43 in concert with Amira 5.43, employing the Volren 3D rendering routine.

[4] = Curcumin binding fluorescence; conditions: in the presence of Zn^2+
From the text: FIG. 40. Fluorescence of C and Q or with incorporated trifluoroleucine/TFL (C TFL and Q TFL) in the presence of no metal, Ni (II), or Zn (II) and curcumin. An increase in fluorescence indicates structural stability of the protein as it is able to bind with curcumin, the fluorescent probe in this case.

[5] = Circular dichroism wavelength scans (secondary structure); type: physicochemical; conditions: for −θ222 × 10^3 / −θmin × 10^3: 10 μM protein; for random coil / α helices / β sheet: CD, K2D method
Procedure: (§1) Circular dichroism: Circular dichroism (CD) measurements were conducted on a Jasco J-815 CD spectrometer. Wavelength and temperature scans were conducted with 10 μM (6.3×10^−2 mg/mL) protein concentrations. The wavelength spectrum was measured over a range from 190 to 250 nm with a step size of 1 nm Mean residue ellipticity (MRE) was calculated from raw data according to the procedure described in Gunasekar et al. 2009. Secondary structure analysis of α-helical, β-sheet, and random coil content was calculated with the K2D method using DichroWeb software. Temperature scans of each protein were performed over a range of 20-85° C. with a temperature step of 1° C./min at 222 nm. Scans were also performed at of 2° C./min and 5° C./min to evaluate dependence of thermal melt signatures on scan speed. All measurements were made in duplicates of independently prepared proteins and data represents the average. Thermodynamic properties of wt and Q were determined through analysis of thermal melts. A two-state model was used, where assumptions included monophasic behavior and reversible melting behavior. These assumptions were confirmed experimentally by melting (from 20 to 85° C.) and cooling (from 85 to 20° C.) the proteins. Calculation of thermodynamic parameters including Tm, ΔG°, ΔH°, and ΔS° were performed according to the method described by Greenfield.
To assess the secondary structure of the proteins under acidic as well as neutral and basic conditions in solution, CD measurements were performed. […] The presence of residue P28 towards the center of Q may have influenced the secondary structure, showing decreased helical content when compared to wt at pH 4 and 10 (FIG. 16). The negative control, L, was completely unstructured, devoid of helical content at pH 4 (FIG. 11). […] As the pH increased, the helical content of soluble Q protein increased.
Mean residual ellipticities from circular dichroism measurements at pH 4, 8, and 10 for wt, L, and Q. The data presented in Table 5 represents the average and standard deviation of at least two replicates.

[6] = Circular dichroism thermal melts at 222 nm, van't Hoff analysis; type: physicochemical; conditions: for Tm: 10 μM protein; for ΔG° (free energy of folding): at 25° C.; for ΔS°: ΔS° = ΔH°/Tm
Procedure: as §1
Thermodynamic properties were assessed via thermal melt of the proteins at 222 nm. Prior to calculating thermodynamic constants, assumptions of monophasic behavior and melt reversibility were confirmed experimentally for wt and Q at all pHs by melting and cooling proteins (FIGS. 18a-18d). The van't Hoff equation was applied to thermal melts of the proteins in the range of 20-85° C.

[7] = without any evidence for protofibrils; cited from earlier work

Molecule | fiber formation seen by TEM [1] | Random, percent composition ([2]; +AuNP (after templation)) | α helix, percent composition ([2]; +AuNP (after templation)) | β sheet, percent composition ([2]; +AuNP (after templation)) | Random, percent composition ([2]; before templation of AuNPs) | α helix, percent composition ([2]; before templation of AuNPs) | β sheet, percent composition ([2]; before templation of AuNPs) | −θ222 × 10^3 ([5]; pH 4) | −θmin × 10^3 ([5]; pH 4) | random coil ([5]; pH 4) | α helices ([5]; pH 4) | β sheet ([5]; pH 4) | −θ222 × 10^3 ([5]; pH 8) | −θmin × 10^3 ([5]; pH 8) | random coil ([5]; pH 8) | α helices ([5]; pH 8) | β sheet ([5]; pH 8) | −θ222 × 10^3 ([5]; pH 10) | −θmin × 10^3 ([5]; pH 10) | random coil ([5]; pH 10) | also measured
C: CC protein, SEQ ID NO:1, variant of COMPcc; coiled-coil forming homopentamers (MRGSHHHHHHGSIEGRAPQMLRELQETNAALQDVRELLRQQVKEITFLKNTSKL) | not been observed to form fibers | 16% | 30% | 54% | 28% | 38% | 33% | – | – | – | – | – | – | – | – | – | – | – | – | – | average width of protein fibers ([3]; 20 mM protein, 100 mM curcumin, 12 hours): 19.24±12 μm; binding to small molecule (curcumin fluorescence) [4]: substantially increase the binding to small molecule
L: L44 protein, SEQ ID NO:3, variant of COMPcc; negative control swap protein (MRGSHHHHHHGSIEGRLQDVERLLRQQVKEITFLKNTAPQMLRELQETNAASKL) [reference compound] | not been observed to form fibers | – | – | – | – | – | – | −0.41 10^3 deg cm^2 dmol^-1 | 5.18 10^3 deg cm^2 dmol^-1 | 43% | 9% | 49% | 3.54 10^3 deg cm^2 dmol^-1 | 4.14 10^3 deg cm^2 dmol^-1 | 49% | 13% | 38% | 3.40 10^3 deg cm^2 dmol^-1 | 3.89 10^3 deg cm^2 dmol^-1 | 52% | α helices ([5]; pH 10): 16%; β sheet ([5]; pH 10): 32%; fiber formation seen by confocal microscopy [3]: No fibers were seen
Qx: variant of Q54 void of the 6×his tag, SEQ ID NO:6 (VKEITFLKNTAPQMLRELQETNAALQDVRELLRQQSKL) | – | 20% | 48% | 32% | 29% | 45% | 26% | – | – | – | – | – | – | – | – | – | – | – | – | – | –
B1 | – | – | – | – | – | – | – | 13.18 10^3 deg cm^2 dmol^-1 | 13.02 10^3 deg cm^2 dmol^-1 | 32% | 50% | 18% | 18.28 10^3 deg cm^2 dmol^-1 | 17.61 10^3 deg cm^2 dmol^-1 | 30% | 64% | 6% | 17.84 10^3 deg cm^2 dmol^-1 | 17.13 10^3 deg cm^2 dmol^-1 | 31% | α helices ([5]; pH 10): 63%; β sheet ([5]; pH 10): 6%; ΔH° (van't Hoff enthalpy) ([6]; pH 4): -29.9 kcal/mol; Tm ([6]; pH 4): 48.2 °C; ΔG° (free energy of folding) ([6]; pH 4): -2.2 kcal/mol; ΔS° ([6]; pH 4): -93 cal/(mol·K); ΔH° (van't Hoff enthalpy) ([6]; pH 8): -31.0 kcal/mol; Tm ([6]; pH 8): 48.8 °C; ΔG° (free energy of folding) ([6]; pH 8): -2.3 kcal/mol; ΔS° ([6]; pH 8): -96.6 cal/(mol·K); ΔH° (van't Hoff enthalpy) ([6]; pH 10): -29.8 kcal/mol; Tm ([6]; pH 10): 46.3 °C; ΔG° (free energy of folding) ([6]; pH 10): -2.0 kcal/mol; ΔS° ([6]; pH 10): -93.3 cal/(mol·K); fiber diameters ([1]; pH 8, 10 mM PB): 17±3 nm; width of fibers ([3]; 12 hours): 12.72 μm; fiber diameters (known) [7]: 10-15 nm

Source: patent publication US9777041B2, “Protein nanofibers from self-assembling pentamers” (New York University, priority 2013, dated 2017)
